# From US20230287598A1 (TAURUS BIOSCIENCES, published 2023)
# T1: CXCR1 (UniProt P25024 1-350, limits assumed)
# T1 construct: whole, on cells; DiscoveRx PathHunter cell line; any reporter tag on the receptor is not described; also called CXCR1 receptor; CXCR1-U2OS
# T1 sequence (looked up): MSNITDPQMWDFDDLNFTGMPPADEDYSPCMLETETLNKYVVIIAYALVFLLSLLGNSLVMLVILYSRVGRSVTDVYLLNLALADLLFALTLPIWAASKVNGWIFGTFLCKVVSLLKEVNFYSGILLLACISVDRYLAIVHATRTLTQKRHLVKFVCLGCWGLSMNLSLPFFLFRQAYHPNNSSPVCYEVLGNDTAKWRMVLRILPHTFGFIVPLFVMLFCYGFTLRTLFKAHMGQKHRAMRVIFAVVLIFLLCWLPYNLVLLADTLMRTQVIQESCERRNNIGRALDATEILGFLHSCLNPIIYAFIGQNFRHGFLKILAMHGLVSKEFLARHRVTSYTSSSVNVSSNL
# B1: VH1-46+CDR3-IL8 IgG (antibody)
# VH: QVQLVQSGAEVKKPGASVKVSCKASGYTFTSYYMHWVRQAPGQGLEWMGIINPSGGSTSYAQKFQGRVTMTRDTSTSTVYMELSSLRSEDTAVYYCTSVHQETKKYQSPRSAKELRCQCIKTYSKPFHPKFIKELRVIESGPHCANTEIIVKLSDGRELCLDPKENWVQRVVEKFLKRAENSGSGSYTYNYEWHVDVWGQGLLVTVSSAS
# light: not shown
# notes: also called VH1-46 BLVCDR3IL8
# B2: VH1-24+CDR3-IL8 IgG (antibody)
# VH: QVQLVQSGAEVKKPGASVKVSCKVSGYTLTELSMHWVRQAPGKGLEWMGGFDPEDGETIYAQKFQGRVTMTEDTSTDTAYMELSSLRSEDTAVYYCTSVHQETKKYQSPRSAKELRCQCIKTYSKPFHPKFIKELRVIESGPHCANTEIIVKLSDGRELCLDPKENWVQRVVEKFLKRAENSGSGSYTYNYEWHVDVWGQGLLVTVSSAS
# light: not shown
# notes: also called VH1-24 BLVCDR3IL8
# B3: BLV1H12 IgG (antibody)
# VH: QVQLRESGPSLVKPSQTLSLTCTASGFSLSDKAVGWVRQAPGKALEWLGSIDTGGNTGYNPGLKSRLSITKDNSKSQVSLSVSSVTTEDSATYYCTSVHQETKKYQSCPDGYRERSDCSNRPACGTSDCCRVSVFGNCLTTLPVSYSYTYNYEWHVDVWGQGLLVTVSS
# light: not shown
# notes: also called ULcowV
# Columns and labels:
# [1] = molecular target: T1, CXCR1; test: flow cytometry on CXCR1-U2OS cells (parental U2OS: 5)
# [2] = molecular target: T1, CXCR1; test: flow cytometry, CXCR1-U2OS / parental U2OS
# [3] = molecular target: T1, CXCR1; test: flow cytometry, median fluorescence CXCR1-U2OS / parental U2OS
Binder,median AFU on CXCR1-U2OS [1],FACS CXCR1/Parental Ratio [2],Ratio of CXCR1/Parental [3]
B1,6 AFU,–,–
B2,23 AFU,–,–
B3,9 AFU,1.9,1.9
